Laboratory results from paper PMC3368889 (Immunity, 2012).

Target: the molecule itself
Assay: SEC

B1: C-terminal fragment of human NLRX1 (residues 629-975) (domain or fragment, UniProt Q86UT6 629-975, looked up)
chain: GLLSAHNRAVLAQLGCPIKNLDALENAQAIKKKLGKLGRQVLPPSELLDHLFFHYEFQNQRFSAEVLSSLRQLNLAGVRMTPVKCTVVAAVLGSGRHALDEVNLASCQLDPAGLRTLLPVFLRARKLGLQLNSLGPEACKDLRDLLLHDQCQITTLRLSNNPLTAAGVAVLMEGLAGNTSVTHLSLLHTGLGDEGLELLAAQLDRNRQLQELNVAYNGAGDTAALALARAAREHPSLELLHLYFNELSSEGRQVLRDLGGAAEGGARVVVSLTEGTAVSEYWSVILSEVQRNLNSWDRARVQRHLELLLRDLEDSRGATLNPWRKAQLLRVEGEVRALLEQLGSSGS
stoichiometry N: 2
